Laboratory results taken from the supplement of paper PMC10065799, “High-throughput profiling of sequence recognition by tyrosine kinases and SH2 domains using bacterial peptide display” (eLife, 2023).

What was measured:
AncSZ = experiment: phosphorylation enrichment, bacterial display (enrichment ratio); higher = better substrate or ligand; peptides without Tyr show the background
EPHB1 = EPHB1 (UniProt P54762); experiment: as above
EPHB2 = EPHB2 (UniProt P29323); experiment: as above
FGFR1 = FGFR1 (UniProt P11362); experiment: as above
FGFR3 = FGFR3 (UniProt P22607); experiment: as above
Sequence of FGFR3 (P22607 whole entry, looked up): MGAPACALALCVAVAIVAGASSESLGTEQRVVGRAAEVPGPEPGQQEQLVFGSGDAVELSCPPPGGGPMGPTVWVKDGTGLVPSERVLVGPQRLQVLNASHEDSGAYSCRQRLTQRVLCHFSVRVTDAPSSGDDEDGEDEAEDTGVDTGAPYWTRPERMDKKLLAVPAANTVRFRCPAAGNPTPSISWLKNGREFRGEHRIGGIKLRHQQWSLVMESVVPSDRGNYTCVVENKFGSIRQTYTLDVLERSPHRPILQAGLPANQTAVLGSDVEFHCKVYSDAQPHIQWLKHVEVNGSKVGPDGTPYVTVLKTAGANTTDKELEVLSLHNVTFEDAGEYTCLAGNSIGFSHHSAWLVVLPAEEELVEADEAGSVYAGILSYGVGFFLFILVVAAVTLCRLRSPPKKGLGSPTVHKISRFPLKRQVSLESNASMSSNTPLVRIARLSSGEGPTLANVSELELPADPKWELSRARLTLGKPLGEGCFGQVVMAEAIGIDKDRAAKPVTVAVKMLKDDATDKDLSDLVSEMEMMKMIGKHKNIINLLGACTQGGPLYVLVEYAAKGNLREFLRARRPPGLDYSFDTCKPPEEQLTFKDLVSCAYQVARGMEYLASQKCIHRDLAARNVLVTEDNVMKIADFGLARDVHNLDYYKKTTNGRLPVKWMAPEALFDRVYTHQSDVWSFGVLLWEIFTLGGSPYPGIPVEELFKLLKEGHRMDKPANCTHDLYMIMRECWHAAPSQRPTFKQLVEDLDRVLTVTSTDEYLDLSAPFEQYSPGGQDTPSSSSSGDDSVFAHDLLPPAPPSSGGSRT

Fer (mouse) = experiment: as above
Fes = Fes (UniProt P07332); experiment: as above
Sequence of Fes (P07332 whole entry, looked up): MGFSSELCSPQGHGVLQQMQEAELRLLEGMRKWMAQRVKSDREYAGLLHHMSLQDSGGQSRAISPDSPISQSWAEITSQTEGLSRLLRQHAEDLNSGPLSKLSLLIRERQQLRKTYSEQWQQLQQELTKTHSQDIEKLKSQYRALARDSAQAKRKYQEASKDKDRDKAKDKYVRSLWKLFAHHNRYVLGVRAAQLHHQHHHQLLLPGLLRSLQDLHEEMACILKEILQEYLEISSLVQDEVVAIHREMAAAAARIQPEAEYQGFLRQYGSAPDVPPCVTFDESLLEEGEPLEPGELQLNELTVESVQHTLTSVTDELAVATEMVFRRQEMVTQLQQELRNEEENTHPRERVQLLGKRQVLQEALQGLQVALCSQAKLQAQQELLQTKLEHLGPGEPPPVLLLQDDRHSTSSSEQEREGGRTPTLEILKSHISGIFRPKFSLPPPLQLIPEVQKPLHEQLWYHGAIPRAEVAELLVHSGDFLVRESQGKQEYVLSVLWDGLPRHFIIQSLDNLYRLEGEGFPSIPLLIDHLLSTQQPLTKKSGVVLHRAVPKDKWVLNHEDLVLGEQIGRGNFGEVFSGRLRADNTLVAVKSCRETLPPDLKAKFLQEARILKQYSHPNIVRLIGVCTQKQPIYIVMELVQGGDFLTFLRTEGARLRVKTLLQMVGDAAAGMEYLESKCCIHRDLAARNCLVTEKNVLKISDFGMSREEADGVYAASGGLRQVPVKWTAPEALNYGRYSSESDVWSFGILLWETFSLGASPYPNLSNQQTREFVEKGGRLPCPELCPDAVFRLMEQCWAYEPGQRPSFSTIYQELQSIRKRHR

Fyn = Fyn (UniProt P06241); experiment: as above
Sequence of Fyn (P06241 whole entry, looked up): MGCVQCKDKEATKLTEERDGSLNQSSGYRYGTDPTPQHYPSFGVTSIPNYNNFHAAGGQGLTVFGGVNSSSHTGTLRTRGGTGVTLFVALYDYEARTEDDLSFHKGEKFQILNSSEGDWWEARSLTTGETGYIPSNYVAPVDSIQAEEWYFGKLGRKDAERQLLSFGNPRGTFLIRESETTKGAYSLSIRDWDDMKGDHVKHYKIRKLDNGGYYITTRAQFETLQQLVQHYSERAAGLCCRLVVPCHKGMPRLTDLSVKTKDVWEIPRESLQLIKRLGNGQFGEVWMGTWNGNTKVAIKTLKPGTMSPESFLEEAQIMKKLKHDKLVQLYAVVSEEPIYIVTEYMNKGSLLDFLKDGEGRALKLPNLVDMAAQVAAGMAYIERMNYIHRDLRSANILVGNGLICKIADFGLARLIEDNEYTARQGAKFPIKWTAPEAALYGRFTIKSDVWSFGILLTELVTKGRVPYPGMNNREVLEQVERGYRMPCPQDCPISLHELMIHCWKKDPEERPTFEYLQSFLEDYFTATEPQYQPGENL

Hck = Hck (UniProt P08631); experiment: as above
Sequence of Hck (P08631 whole entry, looked up): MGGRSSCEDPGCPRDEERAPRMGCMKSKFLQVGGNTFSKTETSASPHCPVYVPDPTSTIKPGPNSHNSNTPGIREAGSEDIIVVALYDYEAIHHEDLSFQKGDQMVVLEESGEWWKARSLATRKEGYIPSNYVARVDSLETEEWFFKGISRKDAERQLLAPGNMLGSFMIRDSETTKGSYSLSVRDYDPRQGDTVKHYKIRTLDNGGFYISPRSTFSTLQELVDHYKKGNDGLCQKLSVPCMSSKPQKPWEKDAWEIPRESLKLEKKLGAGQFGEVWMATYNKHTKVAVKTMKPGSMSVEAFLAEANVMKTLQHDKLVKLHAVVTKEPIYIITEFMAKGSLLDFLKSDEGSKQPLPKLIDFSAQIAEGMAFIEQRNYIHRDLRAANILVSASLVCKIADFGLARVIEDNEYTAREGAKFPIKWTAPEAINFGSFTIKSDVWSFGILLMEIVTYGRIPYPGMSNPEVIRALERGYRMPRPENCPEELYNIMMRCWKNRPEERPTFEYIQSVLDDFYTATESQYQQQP

Jak2 = Jak2 (UniProt O60674); experiment: as above
Sequence of Jak2 (O60674 whole entry, looked up): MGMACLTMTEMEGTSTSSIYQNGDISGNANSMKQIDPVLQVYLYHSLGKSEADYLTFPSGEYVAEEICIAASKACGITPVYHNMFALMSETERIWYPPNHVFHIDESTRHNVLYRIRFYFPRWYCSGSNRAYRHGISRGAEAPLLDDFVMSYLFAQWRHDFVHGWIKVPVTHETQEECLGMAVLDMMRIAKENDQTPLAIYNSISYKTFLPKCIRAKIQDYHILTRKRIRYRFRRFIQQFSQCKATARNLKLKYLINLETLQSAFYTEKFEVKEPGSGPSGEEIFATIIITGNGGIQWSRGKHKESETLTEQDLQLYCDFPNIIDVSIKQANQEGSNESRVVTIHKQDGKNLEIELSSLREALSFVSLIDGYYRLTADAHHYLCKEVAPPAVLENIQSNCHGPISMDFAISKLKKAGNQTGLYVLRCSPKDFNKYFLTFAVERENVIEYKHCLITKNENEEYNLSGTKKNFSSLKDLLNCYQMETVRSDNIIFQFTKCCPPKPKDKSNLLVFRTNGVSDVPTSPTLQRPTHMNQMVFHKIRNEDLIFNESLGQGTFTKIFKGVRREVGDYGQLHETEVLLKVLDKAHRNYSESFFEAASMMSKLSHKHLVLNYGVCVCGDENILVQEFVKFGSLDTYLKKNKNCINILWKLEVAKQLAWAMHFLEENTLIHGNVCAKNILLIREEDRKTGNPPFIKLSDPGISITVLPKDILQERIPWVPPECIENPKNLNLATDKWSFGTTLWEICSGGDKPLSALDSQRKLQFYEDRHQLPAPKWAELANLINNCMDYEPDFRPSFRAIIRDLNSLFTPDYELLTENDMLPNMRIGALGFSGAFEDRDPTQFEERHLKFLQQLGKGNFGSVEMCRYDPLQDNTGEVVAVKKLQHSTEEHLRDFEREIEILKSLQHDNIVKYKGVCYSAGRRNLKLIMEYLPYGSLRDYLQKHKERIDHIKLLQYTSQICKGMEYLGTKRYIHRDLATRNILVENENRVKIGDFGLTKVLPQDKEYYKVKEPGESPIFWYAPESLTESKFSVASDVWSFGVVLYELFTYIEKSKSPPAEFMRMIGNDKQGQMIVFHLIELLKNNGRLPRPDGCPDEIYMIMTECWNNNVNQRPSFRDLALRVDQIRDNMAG

MERTK = MERTK (UniProt Q12866); experiment: as above
c-Abl (mouse) = experiment: as above
c-Src = experiment: as above
Grb2 SH2 = Grb2 SH2 (UniProt P62993); experiment: SH2 binding enrichment of the phosphorylated peptide, bacterial display (enrichment ratio); higher = better substrate or ligand; peptides without Tyr show the background
Sequence of Grb2 SH2 (P62993 whole entry, looked up): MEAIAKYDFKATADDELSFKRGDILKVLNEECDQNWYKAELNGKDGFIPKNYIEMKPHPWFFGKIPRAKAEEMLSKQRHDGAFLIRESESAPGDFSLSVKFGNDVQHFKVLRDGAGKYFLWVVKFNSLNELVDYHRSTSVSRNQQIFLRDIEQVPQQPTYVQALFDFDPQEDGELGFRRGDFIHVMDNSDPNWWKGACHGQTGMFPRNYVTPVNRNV

SHP2-C SH2 = experiment: as above
c-Src SH2 = experiment: as above
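For SH2 binding enrichment of the phosphorylated peptide, bacterial display in this document: peptide library displayed on the E. coli surface as eCPX fusions, selected cells deep-sequenced, score is each peptide's frequency after selection divided by its frequency in the input.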
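For phosphorylation enrichment, bacterial display in this document: 11-residue human phosphosite peptides and single-mutation variants displayed on the E. coli surface, counted by deep sequencing, each peptide's frequency after selection divided by its frequency in the unselected input library; frequency after pTyr selection over input frequency; kinase dosed for 20-30% of maximal phosphorylation in three min.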

Sequence of EPHB1 (P54762 whole entry, looked up): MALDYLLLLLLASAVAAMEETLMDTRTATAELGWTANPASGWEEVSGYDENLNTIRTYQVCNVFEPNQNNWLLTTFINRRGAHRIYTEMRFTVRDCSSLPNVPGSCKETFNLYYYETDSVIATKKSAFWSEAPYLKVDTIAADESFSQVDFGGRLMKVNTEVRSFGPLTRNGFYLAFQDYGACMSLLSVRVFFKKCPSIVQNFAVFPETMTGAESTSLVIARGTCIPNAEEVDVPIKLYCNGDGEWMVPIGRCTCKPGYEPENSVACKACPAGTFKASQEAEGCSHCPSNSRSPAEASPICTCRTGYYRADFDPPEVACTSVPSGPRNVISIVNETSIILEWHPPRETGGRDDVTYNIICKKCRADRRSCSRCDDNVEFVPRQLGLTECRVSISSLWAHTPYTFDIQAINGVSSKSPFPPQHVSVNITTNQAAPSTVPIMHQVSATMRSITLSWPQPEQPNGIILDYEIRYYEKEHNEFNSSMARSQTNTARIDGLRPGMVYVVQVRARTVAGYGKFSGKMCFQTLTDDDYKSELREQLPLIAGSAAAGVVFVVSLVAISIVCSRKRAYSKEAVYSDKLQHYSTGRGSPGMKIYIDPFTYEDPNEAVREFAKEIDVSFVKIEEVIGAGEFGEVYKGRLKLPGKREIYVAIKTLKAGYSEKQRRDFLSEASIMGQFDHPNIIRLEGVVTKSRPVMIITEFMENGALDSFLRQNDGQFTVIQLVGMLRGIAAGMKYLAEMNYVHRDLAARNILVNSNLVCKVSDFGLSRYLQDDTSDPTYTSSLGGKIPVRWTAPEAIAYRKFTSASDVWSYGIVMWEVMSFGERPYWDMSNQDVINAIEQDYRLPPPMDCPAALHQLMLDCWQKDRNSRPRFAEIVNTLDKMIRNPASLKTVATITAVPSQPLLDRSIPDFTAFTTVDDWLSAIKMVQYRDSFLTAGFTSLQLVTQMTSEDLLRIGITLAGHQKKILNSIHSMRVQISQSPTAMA

Sequence | phosphorylation enrichment (AncSZ) | phosphorylation enrichment (EPHB1) | phosphorylation enrichment (EPHB2) | phosphorylation enrichment (FGFR1) | phosphorylation enrichment (FGFR3) | phosphorylation enrichment (Fer (mouse)) | phosphorylation enrichment (Fes) | phosphorylation enrichment (Fyn) | phosphorylation enrichment (Hck) | phosphorylation enrichment (Jak2) | phosphorylation enrichment (MERTK) | phosphorylation enrichment (c-Abl (mouse)) | phosphorylation enrichment (c-Src) | SH2 binding enrichment (Grb2 SH2) | SH2 binding enrichment (SHP2-C SH2) | SH2 binding enrichment (c-Src SH2)
EEGENYQKGER [CHGB_Y173] | 0.921 | 0.53 | 0.571 | 0.509 | 0.731 | 0.518 | 1.15 | 0.518 | 0.467 | 0.963 | 0.425 | 0.797 | 0.463 | 0.816 | 0.602 | 0.436
EEGNPYYSGAR [MCCC2_Y520_S523G] | 0.898 | 0.409 | 0.551 | 0.542 | 0.552 | 0.425 | 0.917 | 0.959 | 1.01 | 0.719 | 0.449 | 0.597 | 1.83 | 0.9 | 0.538 | 0.714
EEGRVYVYHLS [ITGAE_Y549_R552H] | 1.13 | 0.576 | 0.491 | 0.58 | 0.75 | 0.756 | 1.22 | 0.64 | 0.519 | 0.998 | 0.449 | 0.713 | 0.828 | 0.701 | 0.897 | 0.438
EEQKKNFNAMK [SCN5A_Y1494_Y1494N_YF] | 0.908 | 0.381 | 0.494 | 0.38 | 0.546 | 0.369 | 0.711 | 0.376 | 0.512 | 0.691 | 0.409 | 0.607 | 0.385 | 0.895 | 0.644 | 0.474
EEVGIYRMSGV [BCR_Y1089_V1091M] | 0.925 | 0.55 | 0.502 | 0.556 | 0.612 | 0.535 | 0.921 | 6.38 | 5.64 | 1.12 | 0.647 | 9.58 | 6.23 | 0.744 | 0.957 | 0.431
EEVKAYLDFRE [CHAC2_Y78] | 1.2 | 0.652 | 0.765 | 0.584 | 0.865 | 0.651 | 1.44 | 0.605 | 0.601 | 1.35 | 0.524 | 0.867 | 0.59 | 0.651 | 0.556 | 0.33
EFLQKYKGFKI [SYNE1_Y6953_YF] | 0.773 | 0.372 | 0.477 | 0.393 | 0.491 | 0.433 | 0.752 | 0.376 | 0.411 | 0.775 | 0.395 | 0.549 | 0.397 | 0.95 | 0.732 | 0.346
EFNLMYDGAKE [IRF6_Y97_T100A] | 1.35 | 0.593 | 0.576 | 0.652 | 0.845 | 0.593 | 1.29 | 0.594 | 0.702 | 1.13 | 0.517 | 0.857 | 0.584 | 0.965 | 0.684 | 0.626
EHEALYLEADL [CENPF_Y1920] | 1.66 | 0.57 | 0.84 | 1.73 | 1.8 | 1.2 | 1.34 | 0.653 | 0.715 | 1.12 | 0.77 | 0.938 | 0.986 | 0.845 | 0.56 | 0.57
EIIPFYGMSSF [FNDC3B_Y175_T179S_YF] | 1.06 | 0.764 | 0.916 | 0.497 | 0.786 | 1.46 | 0.995 | 1.06 | 1.15 | 0.772 | 1.54 | 0.865 | 0.822 | 0.652 | 0.592 | 4.4
EIVFVYVKKRS [DNAI2_Y7_YF] | 0.995 | 0.373 | 0.476 | 0.498 | 0.467 | 0.593 | 1.05 | 0.341 | 0.456 | 1.34 | 0.296 | 0.585 | 0.386 | 0.995 | 0.833 | 0.516
EKMWTYMRSAE [GRIA4_Y695] | 1.04 | 0.573 | 0.62 | 0.409 | 0.602 | 0.359 | 1.01 | 0.433 | 0.432 | 0.836 | 0.299 | 0.81 | 0.404 | 0.842 | 0.726 | 0.442
EKSREYDRLFE [PIK3R1_Y463_YF] | 0.929 | 0.457 | 0.602 | 0.434 | 0.577 | 0.437 | 0.993 | 0.448 | 0.522 | 0.935 | 0.453 | 0.784 | 0.5 | 0.809 | 0.991 | 13.5
ELTAKYLNFFR [P3H4_Y181_Q186R_YF] | 0.684 | 0.414 | 0.425 | 0.394 | 0.513 | 0.335 | 0.778 | 0.444 | 0.456 | 0.632 | 0.435 | 0.574 | 0.366 | 2.78 | 1.14 | 0.832
ELTAKYLNYYQ [P3H4_Y181] | 0.781 | 0.705 | 0.642 | 0.683 | 0.71 | 0.445 | 0.802 | 0.407 | 0.493 | 0.715 | 0.977 | 0.564 | 0.492 | 2.21 | 1.03 | 1.38
ENAGFYFQVSA | 1.08 | 0.483 | 0.493 | 0.416 | 0.721 | 0.474 | 1.15 | 0.329 | 0.304 | 1.3 | 0.333 | 0.797 | 0.347 | 0.629 | 0.658 | 0.537
ENELTYFCCKK [CD59_Y86_YF] | 1.32 | 0.465 | 0.543 | 0.867 | 0.711 | 0.478 | 1.04 | 1.08 | 1.18 | 2.65 | 0.703 | 0.737 | 2.21 | 0.975 | 0.935 | 0.711

Sequence | phosphorylation enrichment (AncSZ) | phosphorylation enrichment (EPHB1) | phosphorylation enrichment (EPHB2) | phosphorylation enrichment (FGFR1) | phosphorylation enrichment (FGFR3) | phosphorylation enrichment (Fer (mouse)) | phosphorylation enrichment (Fes) | phosphorylation enrichment (Fyn) | phosphorylation enrichment (Hck) | phosphorylation enrichment (Jak2) | phosphorylation enrichment (MERTK) | phosphorylation enrichment (c-Abl (mouse)) | phosphorylation enrichment (c-Src) | SH2 binding enrichment (Grb2 SH2) | SH2 binding enrichment (SHP2-C SH2) | SH2 binding enrichment (c-Src SH2)
ENGPYYTSYPP [GDAP2_Y488] | 1.31 | 0.658 | 1 | 2.7 | 1.89 | 0.707 | 0.83 | 3.58 | 2.14 | 0.703 | 5.54 | 1.33 | 3.52 | 0.761 | 0.708 | 0.763
ENPLDYGSAWA [AR_Y395] | 0.992 | 0.46 | 0.565 | 0.491 | 0.744 | 0.524 | 1.08 | 0.527 | 0.559 | 0.991 | 0.395 | 0.709 | 0.476 | 0.716 | 0.806 | 0.454
ENQEIYRKAFD [KPNA1_Y493_Q494R] | 0.883 | 0.618 | 0.798 | 0.537 | 0.627 | 0.55 | 1.13 | 0.431 | 0.499 | 1.3 | 0.393 | 0.812 | 0.451 | 0.814 | 0.719 | 0.397
EPAVLYNLKDR [MYH7_Y103] | 0.722 | 0.411 | 0.537 | 0.521 | 0.539 | 0.455 | 0.835 | 0.583 | 0.662 | 0.585 | 0.473 | 0.571 | 0.461 | 0.774 | 0.867 | 0.374
EPVSDYINANV [PTPN11_Y304_I309V] | 1.03 | 0.42 | 0.486 | 0.541 | 0.585 | 0.384 | 0.855 | 0.393 | 0.428 | 0.754 | 0.4 | 0.567 | 0.37 | 1.14 | 0.676 | 0.466
EQKRYYNAMKK [SCN5A_Y1495_K1493R] | 0.586 | 0.356 | 0.317 | 0.348 | 0.465 | 0.399 | 0.576 | 0.457 | 0.312 | 0.605 | 0.547 | 0.447 | 0.371 | 1.05 | 0.899 | 1.19
EQLGEYKFQNA [ALB_Y425] | 0.824 | 0.461 | 0.415 | 0.471 | 0.5 | 0.351 | 0.77 | 0.394 | 0.415 | 0.715 | 0.324 | 0.774 | 0.367 | 0.793 | 0.416 | 0.518
EQSNPYMVLDI [ROCK2_Y1197] | 1.19 | 0.577 | 0.616 | 1.11 | 1.1 | 3.79 | 1.09 | 2.5 | 1.38 | 1.24 | 2.28 | 0.737 | 3.73 | 0.923 | 0.654 | 0.72
EQYELHCEMGS [CBL_Y371_Y371H] | 1.33 | 0.682 | 0.63 | 0.538 | 0.818 | 0.915 | 1.18 | 0.491 | 0.498 | 1.03 | 0.476 | 0.82 | 0.61 | 0.815 | 0.859 | 0.611
ERFSYYGMKAV [SLC15A2_Y61] | 0.993 | 0.477 | 0.658 | 4.94 | 4.31 | 0.386 | 0.767 | 0.8 | 1.37 | 4.66 | 0.9 | 0.578 | 1.4 | 0.877 | 0.85 | 0.978
ERLLDYTRTVQ [INPP5E_Y439] | 0.945 | 0.663 | 0.451 | 0.518 | 0.665 | 0.544 | 1.06 | 0.495 | 0.439 | 1.06 | 0.365 | 0.853 | 0.493 | 0.777 | 0.584 | 0.39
ERSMSYSDESR [SMG1_Y143] | 0.887 | 0.541 | 0.541 | 0.537 | 0.63 | 0.485 | 0.912 | 0.463 | 0.456 | 0.876 | 0.489 | 0.905 | 0.538 | 0.881 | 0.714 | 0.715
ERTIEYLEEVA [HADHA_Y239] | 1.28 | 0.593 | 0.704 | 0.608 | 0.845 | 0.663 | 1.35 | 0.722 | 0.622 | 1.2 | 0.541 | 0.863 | 0.521 | 0.774 | 0.637 | 0.513
ESFRLYPPVPQ [CYP4B1_Y377] | 0.62 | 0.416 | 0.477 | 0.342 | 0.491 | 0.378 | 0.704 | 0.457 | 0.415 | 0.536 | 0.404 | 0.553 | 0.391 | 0.829 | 0.713 | 0.464
ESKAGYRVPRS [CLDN7_Y195] | 0.543 | 0.303 | 0.327 | 0.305 | 0.352 | 0.52 | 0.583 | 0.369 | 0.416 | 0.524 | 0.339 | 0.681 | 0.43 | 0.83 | 0.699 | 0.544
ESLRRYLENGK [HLA-B_Y195_W191S] | 0.629 | 0.431 | 0.362 | 0.397 | 0.45 | 0.454 | 0.629 | 0.384 | 0.461 | 0.519 | 0.392 | 0.548 | 0.34 | 0.813 | 0.473 | 0.436
